Source: paper PMC7836013, “Characterization of Formononetin Sulfonation in SULT1A3 Overexpressing HKE293 Cells: Involvement of Multidrug Resistance-Associated Protein 4 in Excretion of Sulfate” (Frontiers in Pharmacology, 2021)

How the values were obtained:
[1] = substrate: COc1ccc(-c2coc3cc(O)ccc3c2=O)cc1; assay: Formononetin sulfonation enzyme kinetics in HEK-SULT1A3 cell lysate; assay type: in vitro ADME, human; settings: other: HEK-SULT1A3 cell lysate, Michaelis-Menten, mean ± SD (n = 3); pH 7.4
Description: (§1) Enzyme kinetic of formononetin incubated with recombinant human SULT1A3 enzyme (rSULT1A3) was evaluated. The reaction was activated after the coenzyme PAPS (which provides sulfonate group to the substrates) was added. The incubation reaction was conducted in 200 μL potassium phosphate buffer (50 mM, pH 7.4) at 37°C, containing SULT1A3 enzyme (0.1 mg/ml), formononetin (0.16–40 μM), and PAPS (a final concentration of 0.10 mM). After incubation for 120 min, the reaction was terminated by adding 100 μL ice-cold acetonitrile. Then the samples were vortexed and centrifuged at 15,000 g for 15 min. The supernatant was analyzed by HPLC for sulfate quantification. All incubations were performed in triplicate. Preliminary experiments were performed to ensure that the rates of sulfation were determined under linear conditions with respect to incubation time and protein concentration.
The sulfonation rates of formononetin at different concentrations were determined according to the sulfonation assay protocol. The kinetic model Michaelis-Menten (Eq. 1) was fitted to the data of sulfonation rates vs. formononetin concentrations. […] The intrinsic clearance (CLint) was calculated by Vmax/Km.
Quantification of formononetin sulfate was performed using Agilent 1,260 Infinity II HPLC system with a ZORBAX SB-C18 column (4.6 × 250 mm, 5 μm; Agilent). […] The samples were analyzed using a gradient of ammonium acetate (2.5 mM) in water (mobile phase A) vs. acetonitrile (mobile phase B) at a flow rate of 1.0 ml/min. […]
HEK293 cells were stably transfected with the cDNA of Human SULT1A3 enzyme through the lentiviral transduction approach ([Sun et al., 2015]), which were named as HEK-SULT1A3 cells. The transduction efficiency was evaluated by measuring the SULT1A3 protein levels in both control and transfected cells. The enzyme function of HEK-SULT1A3 cells was further determined using sulfonation assay. […] Then, in order to identify the function of HEK-SULT1A3 cells in sulfate generation, formononetin was incubated with the HEK-SULT1A3 cell lysate and enzyme kinetic was determined as described above.

[2] = substrate: COc1ccc(-c2coc3cc(O)ccc3c2=O)cc1; assay: Formononetin sulfonation enzyme kinetics in recombinant human SULT1A3; assay type: in vitro ADME; settings: other: rSULT1A3, Michaelis-Menten, mean ± SD (n = 3); pH 7.4
Description: as §1
The sulfonation rates of formononetin at different concentrations were determined according to the sulfonation assay protocol. The kinetic model Michaelis-Menten (Eq. 1) was fitted to the data of sulfonation rates vs. formononetin concentrations. Model selection was based on visual inspection of the Eadie-Hofstee plot. […] Model fitting and kinetic parameters evaluation were performed using GraphPad Prism software (5.3 version). V=Vmax·[S]/Km+[S] (1) where Vmax is the maximal velocity and Km is the Michaelis constant. The intrinsic clearance (CLint) was calculated by Vmax/Km.
Quantification of formononetin sulfate was performed using Agilent 1,260 Infinity II HPLC system with a ZORBAX SB-C18 column (4.6 × 250 mm, 5 μm; Agilent). The temperature of the column was set at 40 °C. The samples were analyzed using a gradient of ammonium acetate (2.5 mM) in water (mobile phase A) vs. acetonitrile (mobile phase B) at a flow rate of 1.0 ml/min. The gradient elution condition was 15% B at 0–2.0 min, 15–95% B at 2.0–12 min, 95% B at 12–15 min, and 95–15% B at 15–18 min. The waiting time was 7.0 min at 15% B in order to ensure the column pressure is back to a stable state before the next injection. […]

Row | Protein | Km [1] | Vmax [1] | Vmax/Km [1] | Km [2] | Vmax [2] | Vmax/Km [2]
1 | HEK-SULT1A3 cell lysate (Homo sapiens) (protein, expressed in transfected cells; cell lysate used) MELIQDTSRPPLEYVKGVPLIKYFAEALGPLQSFQARPDDLLINTYPKSGTTWVSQILDMIYQGGDLEKCNRAPIYVRVPFLEVNDPGEPSGLETLKDTPPPRLIKSHLPLALLPQTLLDQKVKVVYVARNPKDVAVSYYHFHRMEKAHPEPGTWDSFLEKFMAGEVSYGSWYQHVQEWWELSRTHPVLYLFYEDMKENPKREIQKILEFVGRSLPEETMDFMVQHTSFKEMKKNPMTNYTTVPQELMDHSISPFMRKGMAGDWKTTFTVAQNERFDADYAEKMAGCSLSFRSEL | 6.17 µM | 13.94 pmol/min/mg | 2.26 ± 0.42 µL/min/mg | – | – | –
2 | Recombinant human SULT1A3 enzymes (rSULT1A3) (Homo sapiens) (protein, purchased Sekisui XenoTech LCC (Kansas, USA)) MELIQDTSRPPLEYVKGVPLIKYFAEALGPLQSFQARPDDLLINTYPKSGTTWVSQILDMIYQGGDLEKCNRAPIYVRVPFLEVNDPGEPSGLETLKDTPPPRLIKSHLPLALLPQTLLDQKVKVVYVARNPKDVAVSYYHFHRMEKAHPEPGTWDSFLEKFMAGEVSYGSWYQHVQEWWELSRTHPVLYLFYEDMKENPKREIQKILEFVGRSLPEETMDFMVQHTSFKEMKKNPMTNYTTVPQELMDHSISPFMRKGMAGDWKTTFTVAQNERFDADYAEKMAGCSLSFRSEL | – | – | – | 6.01 ± 0.97 µM | 145.30 ± 7.91 pmol/min/mg | 24.18 ± 4.13 µL/min/mg
